Reference: US20250313635A1, “ANTI-INTEGRIN ANTIBODIES AND USES THEREOF” (Merck Sharp & Dohme LLC, priority 2022, published 2025)

Target: recombinant mouse αvβ8 integrin extracellular domains (mouse) (UniProt P43406)
Test: AlphaLISA blocking of mouse LAP-6His binding

Sequence of recombinant mouse αvβ8 integrin extracellular domains (mouse) (P43406 other isoform, or with tags, fused parts or gaps, form in doubt, chain 1 of 2): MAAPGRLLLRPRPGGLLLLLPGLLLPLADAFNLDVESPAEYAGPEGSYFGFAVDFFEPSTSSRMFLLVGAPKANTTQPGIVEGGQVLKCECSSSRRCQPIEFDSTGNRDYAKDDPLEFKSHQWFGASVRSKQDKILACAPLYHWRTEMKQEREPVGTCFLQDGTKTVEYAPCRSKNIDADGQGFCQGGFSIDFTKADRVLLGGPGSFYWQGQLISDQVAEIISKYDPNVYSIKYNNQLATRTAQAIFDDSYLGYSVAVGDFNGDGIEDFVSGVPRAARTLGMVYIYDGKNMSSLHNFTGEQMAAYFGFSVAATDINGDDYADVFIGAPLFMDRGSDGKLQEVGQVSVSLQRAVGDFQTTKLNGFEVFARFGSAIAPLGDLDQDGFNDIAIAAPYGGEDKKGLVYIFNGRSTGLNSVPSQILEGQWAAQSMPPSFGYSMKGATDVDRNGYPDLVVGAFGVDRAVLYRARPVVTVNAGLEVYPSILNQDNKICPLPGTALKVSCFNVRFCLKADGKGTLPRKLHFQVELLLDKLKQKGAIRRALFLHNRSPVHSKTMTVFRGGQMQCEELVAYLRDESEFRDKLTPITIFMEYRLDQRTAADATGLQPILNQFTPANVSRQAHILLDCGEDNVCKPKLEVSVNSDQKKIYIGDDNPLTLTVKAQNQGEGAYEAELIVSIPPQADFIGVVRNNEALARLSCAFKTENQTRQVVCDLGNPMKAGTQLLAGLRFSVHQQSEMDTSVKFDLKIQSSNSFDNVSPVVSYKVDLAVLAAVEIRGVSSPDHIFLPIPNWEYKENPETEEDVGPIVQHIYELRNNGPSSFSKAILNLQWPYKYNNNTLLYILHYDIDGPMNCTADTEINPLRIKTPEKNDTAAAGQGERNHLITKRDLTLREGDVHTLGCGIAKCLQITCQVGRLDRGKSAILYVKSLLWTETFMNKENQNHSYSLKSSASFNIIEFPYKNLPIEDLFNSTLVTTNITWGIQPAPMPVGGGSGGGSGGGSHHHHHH
Sequence of recombinant mouse αvβ8 integrin extracellular domains (mouse) (Q0VBD0 other isoform, or with tags, fused parts or gaps, form in doubt, chain 2 of 2, further chain): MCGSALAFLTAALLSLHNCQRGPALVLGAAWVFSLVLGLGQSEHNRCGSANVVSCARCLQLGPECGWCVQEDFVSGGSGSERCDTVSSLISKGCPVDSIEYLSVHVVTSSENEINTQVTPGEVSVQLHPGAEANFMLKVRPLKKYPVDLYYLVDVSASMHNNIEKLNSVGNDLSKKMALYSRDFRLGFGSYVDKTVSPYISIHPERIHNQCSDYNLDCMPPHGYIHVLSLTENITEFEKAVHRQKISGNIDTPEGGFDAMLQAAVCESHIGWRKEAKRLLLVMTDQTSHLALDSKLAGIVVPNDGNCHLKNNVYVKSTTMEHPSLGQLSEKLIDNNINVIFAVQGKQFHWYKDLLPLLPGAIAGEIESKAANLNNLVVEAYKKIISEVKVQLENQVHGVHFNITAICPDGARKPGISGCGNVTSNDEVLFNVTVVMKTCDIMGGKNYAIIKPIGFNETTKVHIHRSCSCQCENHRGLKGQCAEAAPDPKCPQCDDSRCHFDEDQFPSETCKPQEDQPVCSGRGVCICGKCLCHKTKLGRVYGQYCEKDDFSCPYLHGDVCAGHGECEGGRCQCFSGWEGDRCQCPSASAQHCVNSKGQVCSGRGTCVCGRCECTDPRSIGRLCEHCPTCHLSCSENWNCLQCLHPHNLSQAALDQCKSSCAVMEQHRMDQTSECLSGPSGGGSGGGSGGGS

| IC50 [nM] | Binder |
| --- | --- |
| 102 | Ab-29 (antibody, V domains shown) VH: ELQLQESGPGLVKPSETLSLTCTVSGGSISSNSYYWGWIRQPPGKGLEWIGSIYYSGSTYYNPSLKSRVTISVDTSKNQFSLKLSSVTAADTAVYYCARVRRVAGRGDSYYYYYGMDVWGQGTTVTVSS VL: DIQMTQSPSSVSASVGDRVTITCRASQGISRWLAWYQQKPGKAPKLLIYAASSLQSGVPSRFSGSGSGTDFTLTISSLQPEDFATYYCQQAISHPWTFGGGTKVEIK |
| 25.1 | Ab-30 (antibody, V domains shown) VH: EVQLQESGPGLVKPSETLSLTCAVSGYSISSGYYWGWIRQPPGKGLEWIGSIYHSGNTYYNPSLKSRVTISVDTSKNQFSLKLSSVTAADTAVYYCARVPRYSRGDAYYYYGMDVWGQGTTVTVSS VL: DIQMTQSPSTLSASVGDRVTITCRASQSISSWLAWYQQKPGKAPKLLIYKASSLESGVPSRFSGSGSGTEFTLTISSLQPDDFATYYCQQVKIYPPYTFGGGTKVEIK |
| 66.3 | Ab-31 (antibody, V domains shown) VH: EVQLQESGPGLVKPSETLSLTCAVSGYSISSGYYWGWIRQPPGKGLEWIGSIYHSGNTYYNPSLKSRVTISVDTSKNQFSLKLSSVTAADTAVYYCARVPRYSRGDAYYYYGMDVWGQGTTVTVSS VL: DIQMTQSPSTLSASVGDRVTITCRASQSIGSWLAWYQQKPGKAPKLLIYKASSLESGVPSRFSGSGSGTEFTLTISSLQPDDFATYYCQQSGPYPWTFGGGTKVEIK |
